In data set [1] the target is T1, VEGF165 (human, UniProt P15692-4 27-191). The data set is described as follows: sandwich aptamer microarray; detected with VEa5-Cy5; EMSA: TBSE (0.05 mM EDTA, 10 mM Tris-HCl, 100 mM NaCl, pH 7; Vap7 folded with +100 mM KCl), 25 C, 30-60 min, 0.1 uM aptamer; 12% gel in 50 mM glycine pH 9.5 with or without 10 mM KCl. Microarray: TBSE, 25 C, 30 min, PBS washes. The note with it: protein: commercial; chain copies: 2. (In general: In EMSA bound probe runs differently from free probe, usually more slowly.)
T1 sequence (P15692 other isoform, or with tags, fused parts or gaps): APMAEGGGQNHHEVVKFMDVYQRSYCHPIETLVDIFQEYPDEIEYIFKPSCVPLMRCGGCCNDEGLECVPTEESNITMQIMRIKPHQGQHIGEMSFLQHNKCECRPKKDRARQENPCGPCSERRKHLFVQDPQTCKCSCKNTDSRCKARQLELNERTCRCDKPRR

Data set [2] has as its target T1, VEGF165. Put plainly: EMSA supershift; 10 uM VEGF165; ternary complex; EMSA: TBSE (0.05 mM EDTA, 10 mM Tris-HCl, 100 mM NaCl, pH 7; Vap7 folded with +100 mM KCl), 25 C, 30-60 min, 0.1 uM aptamer; 12% gel in 50 mM glycine pH 9.5 with or without 10 mM KCl. Microarray: TBSE, 25 C, 30 min, PBS washes. The note with it: protein: commercial; chain copies: 2; label: 5'-FAM on strand 2; two separate aptamers, not a duplex.

Data set [3] addresses T1, VEGF165. Put plainly: EMSA; 5 uM VEGF165; EMSA: TBSE (0.05 mM EDTA, 10 mM Tris-HCl, 100 mM NaCl, pH 7; Vap7 folded with +100 mM KCl), 25 C, 30-60 min, 0.1 uM aptamer; 12% gel in 50 mM glycine pH 9.5 with or without 10 mM KCl. Microarray: TBSE, 25 C, 30 min, PBS washes. Conditions: protein: commercial; chain copies: 2; label: 5'-FAM; three stem-loops (predicted).
For data set [4], the target named is T1, VEGF165. The data set is described as follows: EMSA; 100 mM KCl; EMSA: TBSE (0.05 mM EDTA, 10 mM Tris-HCl, 100 mM NaCl, pH 7; Vap7 folded with +100 mM KCl), 25 C, 30-60 min, 0.1 uM aptamer; 12% gel in 50 mM glycine pH 9.5 with or without 10 mM KCl. Microarray: TBSE, 25 C, 30 min, PBS washes. The note with it: protein: commercial; chain copies: 2; G4.
For data set [5], the target named is T1, VEGF165. The data set is described as follows: EMSA; 5 uM VEGF165; two shifted bands; EMSA: TBSE (0.05 mM EDTA, 10 mM Tris-HCl, 100 mM NaCl, pH 7; Vap7 folded with +100 mM KCl), 25 C, 30-60 min, 0.1 uM aptamer; 12% gel in 50 mM glycine pH 9.5 with or without 10 mM KCl. Microarray: TBSE, 25 C, 30 min, PBS washes. The note with it: protein: commercial; chain copies: 2; label: 5'-FAM; G4.

Data set [6] has as its target T1, VEGF165. The data set is described as follows: EMSA; EMSA: TBSE (0.05 mM EDTA, 10 mM Tris-HCl, 100 mM NaCl, pH 7; Vap7 folded with +100 mM KCl), 25 C, 30-60 min, 0.1 uM aptamer; 12% gel in 50 mM glycine pH 9.5 with or without 10 mM KCl. Microarray: TBSE, 25 C, 30 min, PBS washes. The note with it: protein: commercial; chain copies: 2; three stem-loops (predicted).

As to TCACGCTTATTTAAGAAGCTGTTTGGTGGAGG (ssDNA, 5'-amino) [Random DNA-NH2], the binding result with VEGF165 [1] is “no binding”.

B1: VEa5-NH2 + Vap7-FAM (mixed)
DNA 1: ATACCAGTCTATTCAATTGGGCCCGTCCGTATGGTGGGTGTGCTGGCCAGATAGTATGTGCAATCA
DNA 2: ATACCAGTCTATTCAATTGCACTCTGTGGGGGTGGACGGGCCGGGTAGA
modifications: 5'-amino on strand 1
As to B1, the binding result with VEGF165 [2] was “binds”.

B2: VEa5-FAM (structured_DNA)
DNA: B1 DNA 1
With B2, the binding result with VEGF165 [3] is on record as “binds”.
Take ATACCAGTCTATTCAATTGCACTCTGTGGGGGTGGACGGGCCGGGTAGA (structured_DNA) [Vap7]: the binding result with VEGF165 [4] is on record as “binds”.
On to ATACCAGTCTATTCAATTGCACTCTGTGGGGGTGGACGGGCCGGGTAGA (structured_DNA) [Vap7-FAM], for which the binding result in the data set with VEGF165 [5] is on record as “binds”.

B3: Vap7-NH2 + VEa5-FAM (mixed)
DNA 1: B1 DNA 2
DNA 2: B1 DNA 1
modifications: 5'-amino on strand 1
As for B3, the binding result with VEGF165 [2] is given as “binds”.

B4: VEa5 (structured_DNA)
DNA: B1 DNA 1
Take B4: in the data set with VEGF165 [6], the binding result is recorded as “binds”.

Source of the values: PMC3859071, “Development of a Multiplex Sandwich Aptamer Microarray for the Detection of VEGF165 and Thrombin”.
